Experimental data published in patent US20160137713A1.

Tests used:
[1] = biological target: human FcRn on HEK293 cells (human) (UniProt P55899); assay: FACS on hFcRn-overexpressing HEK293 cells at pH 7.4, Alexa488 anti-human goat antibody; hIgG1 is the reference of the ratio
[2] = biological target: human FcRn on HEK293 cells (human) (UniProt P55899); assay: FACS competition on hFcRn HEK293 cells at pH 6.0; remaining binding of 100 nM Alexa488-labeled hIgG1 (m14) with 250 nM unlabeled competitor, percent of the tube without competitor
[3] = biological target: human FcRn on HEK293 cells (human) (UniProt P55899); assay: FACS competition on hFcRn HEK293 cells at pH 6.0; remaining binding of 100 nM Alexa488-labeled hIgG1 (m14) with 500 nM unlabeled competitor, percent of the tube without competitor
[4] = biological target: human FcRn on HEK293 cells (human) (UniProt P55899); assay: FACS competition on hFcRn HEK293 cells at pH 6.0; remaining binding of 100 nM Alexa488-labeled hIgG1 (m14) with 1000 nM unlabeled competitor, percent of the tube without competitor
[5] = biological target: human FcRn on HEK293 cells (human) (UniProt P55899); assay: FACS on hFcRn-overexpressing HEK293 cells at pH 6.0, Alexa488 anti-human goat antibody; hIgG1 is the reference of the ratio

Relative MFI (Fold) [1]: 1 fold | Relative MFI(%) at 250nM [2]: 87.4% | Relative MFI(%) at 500nM [3]: 69.9% | Relative MFI(%) at 1000nM [4]: 69.1% | Relative MFI (Fold) [5]: 1 fold
Substance: human IgG1 (antibody)
